B1: PRT-504 (protein)
chain: MITSVWTKGVTPPTDFIKGEDVFHAPYKAGQGWYDITKAFDGGDDLLCGAATAGNMLHWWFDQNKEYIEAYLKKHPEKQKIMFGDQELLDVRKAINTKGSQKNSELFNYFRDKAFPNLSARRLGVMPDLVLDMFINGYYLNVTKTQTTDVNRTYQEKDKRGGIFDAVFTRGDQSKLLTSRHDLKNKGLNEISQLIKQELTEGKALGLSHTYANVRINHVINLWGADFDADGNLEAIYVTDSDSNASIGMKKYFVGVNSAGKVAISAKEIKEDNIGAQVLGLFTLSTGQDIWNQTNLEHHHHHH
B2: PRT-514 (protein)
chain: MITSVWTKGVTPPTDFIKGEDVFHAPYKAGQGWYDITKAFDGGDDLLCGAATAGNMLHWWFDQNKEEIEAYLKKHPEKQKIMFGDQELLDVRKVINTKDSQTNSALFNYFKDKAFPNLSARRLGVMPDLVLDMFINGYYLNVYKTQTTDVNRQEQTKDRRGGIFDAVFGRGDQTKLLTERHDFKEKTLNEISQLIKQELTEGKALGLSHTYANVRINHVINLWGADFDAEGNLEAIYVTDSDSNASIGMKKYFVGVNSAGKVAISAKEIKEDNIGAQVLGLFTLSTGQKIWNKTNLEHHHHHH
B3: PRT-493 (protein)
chain: MVTSVWTKGVTPPTNFTYGEDVLHAPYVANQGWYDITKTFNGKDNLLCGAATAGNMLHWWFDQNKEQIENYLKKHPEKQKIIFNNQELFDLKAAIDTKDSQLDSKLFEYFKEKAFPYLSTKHLGVFPDHVIDMFINGYRLSLTNHGPTPVKRGSKDKRGGIFDAVFTRGVQSKLLTNRHDLKNKTLKEISDLIKQELTEGKALGISHTYANVRINHVINLWGADFDAEGNLEAIYVTDSDTNASIGMKKYFVGVNSNGKVAISAKEIEEDNIGAQVLGLFTLSTGQDIWNQTNLEHHHHHH
B4: PRT-483 (protein)
chain: MVTSVWTKGVTPPTDFIKGEDVFHAPYKAGQGWYDITKTFNGKDNLLCGAATAGNMLHWWFDQNKDQIEAYLKEHPEKQKIIFNNQELFDLKAAIDTKDDQTNSKLFEYFKEKAFPYLSTKHLGVFPDHVLDMFINGYRLSLTNHGPTPVKEGSKDKRGGIFDAVFTRGVQSKLLTSRHDLKNKTLKEISDLIKQELTEGKALALSHTYANVRINHVINLWGADFDSNGNLEAIYVTDSDTNASIGMKKYFVGVNSAGKVAISAKEIEDDNIGAQVLGLFTLSTGQDIWNQTNLEHHHHHH
B5: PRT-487 (protein)
chain: MVTSVWTKGVTPPTDFIKGEDVFHAPYKAGQGWYDITKTFNGKDNLLCGAATAGNMLHWWFDQNKDQIERYLKEHPEKQKIIFNNQELFDLKAAIDTKDSQTDSKLFEYFKEKAFPYLSTKHLGVFPDHVLDMFINGYRLSLTNHGPTPVKEGSKDKRGGIFDAVFTRGVQSKLLTSRHDLKNKTLKEISDLIKQELTEGKALGLSHTYANVRINHVINLWGADFDSEGNLKAIYVTDSDTNASIGMKKYFVGVNSAGKVAISAKEIKEDNIGAQVLGLFTLSTGQDIWNQTNLEHHHHHH
B6: PRT-525 (protein)
chain: MITSVWTKGVTPPAKFTQGEDVFHAPYVANQGWYDITKTFNGKDNLLCGAATAGNMLHWWFDQNKEEIEAYLKKHPEKQKIIFNNQELFDLKAVINTKDSQTNSALFNYFKDKAFPNLSARRLGVFPDLVLDMFINGYYLNVYKTQTTDVNRTYQTKDRRGGIFDAVFTRGVQSKLLTERHDLKNKTLKEISDLIKQELTEGKALGLSHTYANVRINHVINLWGADFDSNGNLEAIYVTDSDTNASIGMKKYFVGVNSAGKVAISAKEIKEDNIGAQVLGLFTLSTGQDIWNQTNLEHHHHHH
B7: PRT-522 (protein)
chain: MITSVWTKGVTPPTDFIKGEDVFHAPYKAGQGWYDITKTFNGKDNLLCGAATAGNMLHWWFDQNKEEIEAYLKKHPEKQKIIFNNQELFDLKAVINTKDSQTNSALFNYFKDKAFPNLSARRLGVFPDLVLDMFINGYYLNVYKTQTTDVNRTYQTKDRRGGIFDAVFTRGVQSKLLTERHDFKEKTLKEISDLIKQELTEGKALGLSHTYANVRINHVINLWGADFDSNGNLEAIYVTDSDTNASIGMKKYFVGVNSAGKVAISAKEIKEDNIGAQVLGLFTLSTGQDIWNQTNLEHHHHHH
B8: PRT-452 (protein)
chain: MVTSVWTKGVTPPANFTQGEDVFHAPYKANQGWYDITKAFDGGDDLLCGAATAGNMLHWWFDQNKDQIEAYLKEHPEKQKINFNGEQMFDVKEAIDTKDDQTNSELFNYFKEKAFPYLSTKHLGVFPDHVLDMFINGYRLSLTNHGPTPVKEGSKDPRGGIFDAVFTRGDQSKLLTSRHDLKNKTLKEISDLIKQELTEGKALALSHTYANVRINHVINLWGADFDSNGNLEAIYVTDSDSNASIGMKKYFVGVNSAGKVAISAKEIEDDNIGAQVLGLFTLSTGQDIWNQTNLEHHHHHH
B9: PRT-464 (protein)
chain: MVTSVWTKGVTPPANFTQGEDVFHAPYVANQGWYDITKAFDGGDDLLCGAATAGNMLHWWFDQNKDQIERYLKEHPEKQKINFNGEQMFDVKEAIDTKDSQTNSELFNYFKEKAFPYLSTKHLGVFPDHVLDMFINGYRLSLTNHGPTPVKEGSKDPRGGIFDAVFTRGDQSKLLTSRHDLKNKTLKEISDLIKQELTEGKALGLSHTYANVRINHVINLWGADFDSEGNLKAIYVTDSDSNASIGMKKYFVGVNSAGKVAISAKEIKEDNIGAQVLGLFTLSTGQDIWNQTNLEHHHHHH
B10: PRT-471 (protein)
chain: MVTSVWTKGVTPPTDFIYGEDVLHAPYKAGQGWYDITKAFDGGDDLLCGAATAGNMLHWWFDQNKEQIENYLKKHPEKQKINFNGEQMFDVKEAIDTKDSQTNSELFNYFKEKAFPYLSTKHLGVFPDHVIDMFINGYRLSLTNHGPTPVKRGSKDPRGGIFDAVFTRGDQSKLLTNRHDFKEKTLKEISDLIKQELTEGKALGISHTYANVRINHVINLWGADFDAEGNLEAIYVTDSDSNASIGMKKYFVGVNSNGKVAISAKEIEEDNIGAQVLGLFTLSTGQDIWNQTNLEHHHHHH
B11: PRT-685 (protein)
chain: MQITSVWTKGVTPLTPEQFRNNNEDVIHAPYLPNQGWYDITKAFNGKDNLLCGAATAGNMLHWWFDQNKEEIEAYLKKYPEKQKIIFNNQELFDLRKAINTKDSQTNSALFNYFRDKAFPNLSARQLGVMPDLVLDMFINGYYLNVFKTQSTDVNRPYQDKDKRGGIFDHVFNRGDQTTLLTARHDLKNKTLNDISTIIKQELSSGKALALSHTYANVSISHVINLWGADFNAEGNLEAIYVTDSDANASIGMKKYYVGRNAHGHVAISAKKIEGENIGAQVLGLFTLSSGKEIWQKLSLEHHHHHH
B12: PRT-518 (protein)
chain: MVTSVWTKGVTPPTDFIKGEDVFHAPYKAGQGWYDITKTFNGKDNLLCGAATAGNMLHWWFDQNKEYIEAYLKKHPEKQKIIFNNQELFDLKAAINTKGSQKNSELFNYFRDKAFPNLSARRLGVFPDLVLDMFINGYYLNVTKTQTTDVNRTYQEKDKRGGIFDAVFTRGVQSKLLTSRHDFKEKGLKEISDLIKQELTEGKALGLSHTYANVRINHVINLWGADFDSDGNLKAIYVTDSDTNASIGMKKYFVGVNSAGKVAISAKEIKEDNIGAQVLGLFTLSTGQDIWNQTNLEHHHHHH
B13: PRT-693 (protein)
chain: MQITSVWTKGVIPPTPEQFRYNNEDVIHAPYLPNQGWYDITKTFNGGDNLLCGAATAGNMLHWWFDQNKTEIEAYLSKYPEKQKIIFNNQELFDLRAAINTKDSQTNSQLFNYFRDKAFPNLSARQLGVMPDLVLDMFINGYYLNVFKTQSTDVNRPYQDRDKRGGIFDHVFGRGDQTTLLTARHDLKNGTLNDISTLIKQELQSGKALALSHTYANVSISHVINLWGADFNAEGNLEAIYVTDSDANSSIGMKKYYVGVNAHGKVAISAKKIEGENIGAQVLGLFTLSSGKEIWQKLSLEHHHHHH

The target in this data set is pooled human IgG (human IgG1, 2, 3 and 4).
Turning to B1, the Enzyme Activity Endpoint Assay: Fab′2 was 1310 ng/µL, the Enzyme Activity Endpoint Assay: Fc stood at 442 ng/µL, the Enzyme Activity Endpoint Assay: IgG amounted to 0 ng/µL and the Enzyme Activity Endpoint Assay: scIgG stood at 0 ng/µL.
Consider B2, for which the Enzyme Activity Endpoint Assay: Fab′2 stood at 64 ng/µL, the Enzyme Activity Endpoint Assay: Fc was 37 ng/µL, the Enzyme Activity Endpoint Assay: IgG came to 0 ng/µL and the Enzyme Activity Endpoint Assay: scIgG is 0 ng/µL.
The protein B3 registered an Enzyme Activity Endpoint Assay: Fab′2 of 1170 ng/µL, an Enzyme Activity Endpoint Assay: Fc of 412 ng/µL, an Enzyme Activity Endpoint Assay: IgG of 0 ng/µL and an Enzyme Activity Endpoint Assay: scIgG of 0 ng/µL.
B4 returned an Enzyme Activity Endpoint Assay: Fab′2 of 1260 ng/µL, an Enzyme Activity Endpoint Assay: Fc of 459 ng/µL, an Enzyme Activity Endpoint Assay: IgG of 0 ng/µL and an Enzyme Activity Endpoint Assay: scIgG of 0 ng/µL.
In turn, B5 showed an Enzyme Activity Endpoint Assay: Fab′2 of 0 ng/µL, an Enzyme Activity Endpoint Assay: Fc of 22 ng/µL, an Enzyme Activity Endpoint Assay: IgG of 0 ng/µL and an Enzyme Activity Endpoint Assay: scIgG of 0 ng/µL.
B6 returned an Enzyme Activity Endpoint Assay: Fab′2 of 1340 ng/µL, an Enzyme Activity Endpoint Assay: Fc of 386 ng/µL, an Enzyme Activity Endpoint Assay: IgG of 0 ng/µL and an Enzyme Activity Endpoint Assay: scIgG of 0 ng/µL.
The protein B7 registered an Enzyme Activity Endpoint Assay: Fab′2 of 736 ng/µL, an Enzyme Activity Endpoint Assay: Fc of 253 ng/µL, an Enzyme Activity Endpoint Assay: IgG of 0 ng/µL and an Enzyme Activity Endpoint Assay: scIgG of 0 ng/µL.
Turning to B8, the Enzyme Activity Endpoint Assay: Fab′2 was found to be 0 ng/µL, the Enzyme Activity Endpoint Assay: Fc came out at 0 ng/µL, the Enzyme Activity Endpoint Assay: IgG was 1870 ng/µL and the Enzyme Activity Endpoint Assay: scIgG was 0 ng/µL.
In turn, B9 showed an Enzyme Activity Endpoint Assay: Fab′2 of 0 ng/µL, an Enzyme Activity Endpoint Assay: Fc of 58 ng/µL, an Enzyme Activity Endpoint Assay: IgG of 0 ng/µL and an Enzyme Activity Endpoint Assay: scIgG of 0 ng/µL.
Consider B10, for which the Enzyme Activity Endpoint Assay: Fab′2 turned out to be 1110 ng/µL, the Enzyme Activity Endpoint Assay: Fc came out at 357 ng/µL, the Enzyme Activity Endpoint Assay: IgG came out at 0 ng/µL and the Enzyme Activity Endpoint Assay: scIgG is 0 ng/µL.
On to B11, for which the Enzyme Activity Endpoint Assay: Fab′2 amounted to 1200 ng/µL, the Enzyme Activity Endpoint Assay: Fc was determined as 448 ng/µL, the Enzyme Activity Endpoint Assay: IgG was 0 ng/µL and the Enzyme Activity Endpoint Assay: scIgG was determined as 0 ng/µL.
With B12, the Enzyme Activity Endpoint Assay: Fab′2 is 1220 ng/µL, the Enzyme Activity Endpoint Assay: Fc stood at 423 ng/µL, the Enzyme Activity Endpoint Assay: IgG turned out to be 0 ng/µL and the Enzyme Activity Endpoint Assay: scIgG is 0 ng/µL.
In turn, B13 showed an Enzyme Activity Endpoint Assay: Fab′2 of 1280 ng/µL, an Enzyme Activity Endpoint Assay: Fc of 436 ng/µL, an Enzyme Activity Endpoint Assay: IgG of 0 ng/µL and an Enzyme Activity Endpoint Assay: scIgG of 0 ng/µL.
